Test results taken from article PMC7935953, “Insights on autophagosome–lysosome tethering from structural and biochemical characterization of human autophagy factor EPG5” (Communications Biology, 2021).
Where no end group is shown, it is not given here.

Legend:
GABARAP = target: T1, GABARAP (Homo sapiens, UniProt O95166); test: GST pull-down of hEPG5 (wild type and mutants) with GST-GABARAP bait; format: binding; details: anti-FLAG western blot, compared to wild-type hEPG5, triplicates
T1 construct: made in house; host or cells: E. coli (T7 Express)
Description: (§1) For GST pull-down analysis, N-terminally GST-tagged LC3 and GABARAP proteins were expressed in Escherichia coli (T7 Express) cells. The cells were induced with 1 mM isopropyl β-d-1-thiogalacpyranoside [IPTG] for 4 h at 25 °C. The cell pellets were resuspended in 25 mL buffer E (50 mM Tris pH 8.0, 150 mM NaCl, and 1 mM PMSF). Cells were then sonicated for four cycles consisting of 1 min sonication followed by 2 min cooling on ice, with duty cycle set to 50% and output control at 5. Cell lysate was then centrifuged at 20,950 × g for 40 min at 4 °C. Supernatant was incubated for 1 h at 4 °C with glutathione resin (50% slurry, GenScript) pre-equilibrated with buffer E, while gently inverting. Resin was returned to the column and washed with buffer E. Proteins were eluted with 10 mM reduced glutathione (GoldBio) in buffer F (50 mM Tris pH 8.0, 150 mM NaCl). Free glutathione was removed by dialysis in buffer F and protein concentration was measured by spectrophotometry (NanoDrop, Thermo Scientific). Glycerol was added to a final concentration of 5%, then solutions were aliquoted and stored at −70 °C.
Pulldowns were performed with a 50 µL slurry of glutathione resin (50% slurry, GenScript). The resin was equilibrated with buffer N (50 mM Tris pH 8.0, 150 mM NaCl, 5% glycerol, 0.01% Tween20, and 0.5 mM DTT) and the beads were incubated with equal amounts (200–240 µg) of purified GST, GST-LC3A/B/C, and GST-GABARAP/L1/L2 bait for 10 min at 4 °C with gentle inversion. The tubes were centrifuged at 500 × g for 2 min, followed by removal of excess bait protein in the supernatant. The resin was then incubated with equal amounts (25–30 µg) of purified His-FLAG-hEPG5, truncated hEPG5 or its corresponding mutants (W550A, W567A, W550A/W567A, F794A, or Q336R). The tubes were once again centrifuged at 500 × g for 2 min, followed by removal of the supernatant. The resin was washed with 1 mL buffer N, centrifuged at 500 × g for 2 min, followed by removal of the excess buffer with five washes. After the final wash and removal of the supernatant, 50 µL 2× SDS loading dye was added to each tube. The tubes were then heated at 65 °C for 10 min, loaded onto two 6–15% gradient SDS–PAGE gels, and stained with Coomassie Blue. For western blots, samples were transferred from a 6–15% gradient SDS–PAGE gel to a nitrocellulose membrane and blocked with Odyssey Blocking Buffer (LI-COR). Mouse anti-FLAG was used as the primary antibody (1:2000; Sigma-Aldrich) and donkey anti-mouse IRDye 680LT as the secondary antibody (1:7500; LI-COR) for visualization on a ChemiDoc Imager (Bio-Rad). Experiments were performed in triplicates.
All experiments were performed in triplicates. ITC data represents means or means ± SEM. Intensity of His-FLAG-hEPG5, GST (control), and GST-LC3/GABARAP subfamily proteins in pull-down assays was quantified using Bio-Rad Image Lab Software v6.0. Statistics were performed using Prism 7 (GraphPad).

[1] = tested on: GABARAP subfamily (GABARAP, GABARAPL1, and GABARAPL2); test: GST pull-down of hEPG5, average over GABARAP subfamily baits; format: binding, human
Description: as §1
Pulldowns were performed with a 50 µL slurry of glutathione resin (50% slurry, GenScript). […]
(§2) All experiments were performed in triplicates. […] Intensity of His-FLAG-hEPG5, GST (control), and GST-LC3/GABARAP subfamily proteins in pull-down assays was quantified using Bio-Rad Image Lab Software v6.0. […]

LC3B = target: T2, LC3B (Homo sapiens, UniProt Q9GZQ8); test: ITC of hEPG5 LIR peptides titrated into His-LC3B; format: binding; details: 0.6 mM peptide into 0.06 mM His-LC3B, 20 steps, 25 °C, 50 mM Tris pH 7.0, 25 mM NaCl, one-site model, mean of triplicates
T2 construct: made in house; host or cells: E. coli (T7 Express)
Description: (§3) For ITC studies, N-terminally His-tagged LC3 and GABARAP proteins were expressed in E. coli (T7 Express) cells. The cells were induced with 1 mM IPTG for 4 h at 25 °C. The cell pellets were resuspended, sonicated, and centrifuged, as described above with buffer G (50 mM Tris pH 7.0, 150 mM NaCl, and 2 mM PMSF). The supernatant was incubated with HisPur^TMNi-NTA resin (Thermo Scientific) pre-equilibrated with buffer G at 4 °C for 1 h. The resin was washed five times with buffer H (50 mM Tris pH 7.0, 150 mM NaCl) and subsequently ten times with buffer H containing 30 mM imidazole. The bound proteins were eluted with buffer H containing 100 mM imidazole once, then 300 mM imidazole for four times, and 500 mM imidazole once. […]
(§4) ITC experiments of hEPG5-LIR1 peptide titrating into His-LC3/GABARAP proteins were performed using ITC200 (GE Healthcare now Malvern Panalytical), while experiments of hEPG5-LIR2 peptide titrating into His-LC3/GABARAP proteins were performed using MicroCal PEAQ-ITC (Malvern Panalytical). […] The ITC data were analyzed with one-site binding model using Origin 7.0 (OriginLab). […]
as §2

LC3C = target: T3, LC3C (Homo sapiens, UniProt Q9BXW4); test: ITC of hEPG5 LIR peptides titrated into His-LC3C; format: binding; details: 0.6 mM peptide into 0.06 mM His-LC3C, 20 steps, 25 °C, 50 mM Tris pH 7.0, 25 mM NaCl, one-site model, triplicates
T3 construct: made in house; host or cells: E. coli (T7 Express)
Description: as §3, §4, §2

[2] = Differential scanning fluorimetry (thermal shift assay) of hEPG5; format: physicochemical; details: 0.4 mg/mL protein, 10× Sypro Orange, 50 mM Tris pH 8.0, 150 mM NaCl, maximum of first derivative, triplicates
Description: Purified wild type His-FLAG-hEPG5 and His-FLAG-hEPG5^Q336R at 0.4 mg/mL were mixed with 10× Sypro Orange dye in buffer F in a final volume of 25 µL. The fluorescence was measured using the MiniOpticon Real-Time PCR system in triplicates. Melting temperature was calculated using the maximum of the first derivative with Prism 7 (GraphPad).

T1 sequence (O95166 whole entry): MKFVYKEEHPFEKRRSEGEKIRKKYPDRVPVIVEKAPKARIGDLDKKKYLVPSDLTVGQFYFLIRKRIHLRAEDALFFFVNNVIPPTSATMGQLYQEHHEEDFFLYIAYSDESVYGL
T3 sequence (Q9BXW4 whole entry): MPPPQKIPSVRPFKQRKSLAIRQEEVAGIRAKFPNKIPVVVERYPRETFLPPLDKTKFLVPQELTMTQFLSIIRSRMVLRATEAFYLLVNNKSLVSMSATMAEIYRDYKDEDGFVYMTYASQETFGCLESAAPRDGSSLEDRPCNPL

hEPG5^Δ1770–2579: hEPG5 truncation mutant which excludes the entire C-terminal region
binding to GABARAP in GST pull-down, in words (GABARAP): binds GABARAP equally well compared to wild-type hEPG5

hEPG5: recombinant full-length human EPG5, His-FLAG tagged, expressed in a baculovirus-insect cell system
hEPG5 precipitated by GABARAP subfamily compared to LC3 subfamily ([1]; fluorescence-based western blotting, triplicates): 2.5 times | Average Ratio of GABARAP Family: LC3 Family ([1]; hEPG5 binding ratio, average of 3 runs): 2.51

GSGTWTLVDEG [LIR1]
Kd with LC3B (LC3B): bind weakly | Kd with LC3C (LC3C): bind weakly

W550A: hEPG5 mutant, first aromatic residue of LIR1 replaced by alanine
binding to GABARAP in GST pull-down, in words (GABARAP): severely

hEPG5^F794A: hEPG5 mutant with mutation to the third putative LIR motif
binding to GABARAP in GST pull-down, in words (GABARAP): binds GABARAP as strongly as wild-type hEPG5

W567A: hEPG5 mutant, first aromatic residue of LIR2 replaced by alanine
binding to GABARAP in GST pull-down, in words (GABARAP): mildly

hEPG5^Δ1–548: hEPG5 truncation devoid of the region between the N-terminus and the two LIR motifs
binding to GABARAP in GST pull-down, in words (GABARAP): precipitated by GABARAP at a higher level compared to wild-type hEPG5

W550A/W567A: hEPG5 double mutant of both tandem LIR motifs
binding to GABARAP in GST pull-down, in words (GABARAP): completely abolished GABARAP binding

hEPG5^Q336R: hEPG5 carrying the Vici syndrome mutation Gln336Arg
binding to GABARAP in GST pull-down, in words (GABARAP): did not affect hEPG5’s ability to bind to GABARAP and other human ATG8 proteins | melting temperature higher than wild-type hEPG5 [2]: ~1.5 °C
